Molecular target: T1, Dpo1 exo- (SsoDpo1, B-family DNA polymerase) (Sulfolobus solfataricus, UniProt P26811 1-882, D231A;D318A)
T1 sequence: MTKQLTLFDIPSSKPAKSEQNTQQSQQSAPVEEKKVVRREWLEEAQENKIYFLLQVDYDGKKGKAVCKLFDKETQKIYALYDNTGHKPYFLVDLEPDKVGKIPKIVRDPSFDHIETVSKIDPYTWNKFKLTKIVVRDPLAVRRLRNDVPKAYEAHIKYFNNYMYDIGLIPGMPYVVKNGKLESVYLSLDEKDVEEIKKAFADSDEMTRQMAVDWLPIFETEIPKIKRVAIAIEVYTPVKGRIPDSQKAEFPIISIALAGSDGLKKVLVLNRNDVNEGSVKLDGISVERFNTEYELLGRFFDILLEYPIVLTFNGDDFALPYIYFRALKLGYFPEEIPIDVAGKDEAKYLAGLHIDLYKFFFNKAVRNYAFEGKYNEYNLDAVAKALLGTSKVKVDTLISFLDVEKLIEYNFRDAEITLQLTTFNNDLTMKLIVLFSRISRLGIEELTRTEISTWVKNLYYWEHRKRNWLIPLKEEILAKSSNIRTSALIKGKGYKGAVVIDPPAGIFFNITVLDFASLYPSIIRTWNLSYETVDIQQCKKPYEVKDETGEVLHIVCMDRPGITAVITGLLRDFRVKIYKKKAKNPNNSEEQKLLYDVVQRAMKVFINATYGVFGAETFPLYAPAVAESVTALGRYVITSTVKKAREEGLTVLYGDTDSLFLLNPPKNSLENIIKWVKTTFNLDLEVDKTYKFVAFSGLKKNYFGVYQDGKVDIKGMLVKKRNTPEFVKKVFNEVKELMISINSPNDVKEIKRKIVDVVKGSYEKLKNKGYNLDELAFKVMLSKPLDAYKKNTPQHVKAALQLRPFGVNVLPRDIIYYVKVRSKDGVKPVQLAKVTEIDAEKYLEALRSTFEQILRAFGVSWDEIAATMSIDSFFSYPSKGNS
Experiment: fluorescence anisotropy

TTTTTTTTTTCCCGGGCCGGCGTTTCGCCGGCCCGGG (structured_DNA) [37-nt hairpin primer-template, 5'-Cy3]
Kd: 94 ± 1 nM
